Experimental findings from patent publication US20250084155A1 are described below.

The target of experiment [1] is HSP70 (human HSP70; the antigen of the binning, humanization and variant binding assays) (human) (UniProt P0DMV8). Description: Octet epitope binning, sandwich format; cell row N15F2-5 / column m77A; the sheet does not say whether rows or columns are the first antibody. In general terms: BLI is a label-free optical method that tracks binding on a fibre tip over time.

Experiment [2] has the same target. Nature of the experiment: Octet epitope binning, sandwich format; cell row N15F2-5 / column N15F2-5; the sheet does not say whether rows or columns are the first antibody.
The target is the same in experiment [3]. Description: Octet epitope binning, sandwich format; cell row N15F2-5 / column C92F3-5; the sheet does not say whether rows or columns are the first antibody.
The target is the same in experiment [4]. Description: Octet epitope binning, sandwich format; cell row C92F3-5 / column N15F2-5; the sheet does not say whether rows or columns are the first antibody.
For experiment [5] the target is unchanged. Description: Octet epitope binning, sandwich format; cell row C92F3-5 / column m77A; the sheet does not say whether rows or columns are the first antibody.
Experiment [6] shares this target. Nature of the experiment: Octet epitope binning, sandwich format (first antibody on the sensor, then HSP70, then second antibody); cell row C92F3-5 / column C92F3-5; the sheet does not say whether rows or columns are the first antibody.

Sequence of HSP70 (human HSP70; the antigen of the binning, humanization and variant binding assays) (human) (P0DMV8 whole entry, change not shown): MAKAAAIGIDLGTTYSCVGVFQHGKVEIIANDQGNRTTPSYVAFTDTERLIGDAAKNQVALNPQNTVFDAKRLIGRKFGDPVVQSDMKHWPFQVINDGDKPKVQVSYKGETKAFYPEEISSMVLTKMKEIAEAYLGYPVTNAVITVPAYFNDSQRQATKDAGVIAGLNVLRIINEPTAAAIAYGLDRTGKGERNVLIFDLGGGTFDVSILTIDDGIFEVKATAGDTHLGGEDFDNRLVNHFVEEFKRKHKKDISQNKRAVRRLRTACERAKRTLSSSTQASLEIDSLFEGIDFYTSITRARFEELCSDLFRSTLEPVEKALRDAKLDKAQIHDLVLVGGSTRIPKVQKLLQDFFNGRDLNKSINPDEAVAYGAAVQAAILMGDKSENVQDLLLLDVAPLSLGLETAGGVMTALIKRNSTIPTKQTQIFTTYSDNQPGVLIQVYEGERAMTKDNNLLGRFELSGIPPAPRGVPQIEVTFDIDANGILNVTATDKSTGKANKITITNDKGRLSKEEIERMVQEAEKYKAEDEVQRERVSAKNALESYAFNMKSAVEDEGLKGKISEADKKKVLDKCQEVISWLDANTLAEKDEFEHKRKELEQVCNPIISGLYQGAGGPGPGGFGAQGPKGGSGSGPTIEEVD

On to “N15F2-5 (Enzo Life Sciences) anti-HSP70 antibody”, for which the maximal binding in the presence of the potentially competing antibody (given as a fraction; legend: percent) came to 0.761 in experiment [1], 0 in experiment [2] and 0.492 in experiment [3].

Turning to “C92F3-5 (Fisher Scientific) anti-HSP70 antibody”, the maximal binding in the presence of the potentially competing antibody (given as a fraction; legend: percent) in experiment [4] amounted to 0.489; in experiment [5], 0.781; in experiment [6] it was 0.
